Measurements taken from publication doi:10.1101/2022.11.07.515429 (bioRxiv, 2022).

Biological target: T1, Strep-PRP5 (human, UniProt Q7L014 1-1031)
T1 sequence: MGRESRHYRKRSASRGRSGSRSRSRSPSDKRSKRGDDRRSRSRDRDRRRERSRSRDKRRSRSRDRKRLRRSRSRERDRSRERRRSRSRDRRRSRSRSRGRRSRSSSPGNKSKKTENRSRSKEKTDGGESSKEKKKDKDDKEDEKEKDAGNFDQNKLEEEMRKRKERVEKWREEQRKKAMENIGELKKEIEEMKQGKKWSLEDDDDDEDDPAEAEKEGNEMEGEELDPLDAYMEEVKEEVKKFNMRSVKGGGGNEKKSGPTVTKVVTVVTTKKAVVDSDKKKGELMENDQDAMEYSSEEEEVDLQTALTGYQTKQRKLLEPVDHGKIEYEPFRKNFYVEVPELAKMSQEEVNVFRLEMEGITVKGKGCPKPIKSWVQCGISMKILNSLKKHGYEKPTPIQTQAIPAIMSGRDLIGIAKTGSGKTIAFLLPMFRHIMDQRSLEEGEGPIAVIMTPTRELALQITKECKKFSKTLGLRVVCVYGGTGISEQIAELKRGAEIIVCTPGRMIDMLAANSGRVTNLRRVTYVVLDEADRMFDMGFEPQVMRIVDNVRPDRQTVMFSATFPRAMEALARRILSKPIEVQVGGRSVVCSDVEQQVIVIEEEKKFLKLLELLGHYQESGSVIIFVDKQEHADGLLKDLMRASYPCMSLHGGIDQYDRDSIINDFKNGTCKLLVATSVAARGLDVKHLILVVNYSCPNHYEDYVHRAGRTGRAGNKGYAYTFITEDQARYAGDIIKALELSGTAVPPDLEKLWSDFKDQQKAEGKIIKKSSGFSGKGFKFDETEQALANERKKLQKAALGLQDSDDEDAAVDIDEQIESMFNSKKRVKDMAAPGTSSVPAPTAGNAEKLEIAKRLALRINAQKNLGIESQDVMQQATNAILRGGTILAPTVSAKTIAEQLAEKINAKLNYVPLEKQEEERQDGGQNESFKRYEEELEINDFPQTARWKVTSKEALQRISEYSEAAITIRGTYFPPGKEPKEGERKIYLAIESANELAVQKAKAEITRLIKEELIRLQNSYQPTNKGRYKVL
Test: pull-down

relative binding ratio (pulldown over input, normalised to WT): 64 percent
B1: Flag-tagged SF3B1 K700E (natural protein, human, UniProt O75533 1-1304, looked up)
chain: MAKIAKTHEDIEAQIREIQGKKAALDEAQGVGLDSTGYYDQEIYGGSDSRFAGYVTSIAATELEDDDDDYSSSTSLLGQKKPGYHAPVALLNDIPQSTEQYDPFAEHRPPKIADREDEYKKHRRTMIISPERLDPFADGGKTPDPKMNARTYMDVMREQHLTKEEREIRQQLAEKAKAGELKVVNGAAASQPPSKRKRRWDQTADQTPGATPKKLSSWDQAETPGHTPSLRWDETPGRAKGSETPGATPGSKIWDPTPSHTPAGAATPGRGDTPGHATPGHGGATSSARKNRWDETPKTERDTPGHGSGWAETPRTDRGGDSIGETPTPGASKRKSRWDETPASQMGGSTPVLTPGKTPIGTPAMNMATPTPGHIMSMTPEQLQAWRWEREIDERNRPLSDEELDAMFPEGYKVLPPPAGYVPIRTPARKLTATPTPLGGMTGFHMQTEDRTMKSVNDQPSGNLPFLKPDDIQYFDKLLVDVDESTLSPEEQKERKIMKLLLKIKNGTPPMRKAALRQITDKAREFGAGPLFNQILPLLMSPTLEDQERHLLVKVIDRILYKLDDLVRPYVHKILVVIEPLLIDEDYYARVEGREIISNLAKAAGLATMISTMRPDIDNMDEYVRNTTARAFAVVASALGIPSLLPFLKAVCKSKKSWQARHTGIKIVQQIAILMGCAILPHLRSLVEIIEHGLVDEQQEVRTISALAIAALAEAATPYGIESFDSVLKPLWKGIRQHRGKGLAAFLKAIGYLIPLMDAEYANYYTREVMLILIREFQSPDEEMKKIVLKVVKQCCGTDGVEANYIKTEILPPFFKHFWQHRMALDRRNYRQLVDTTVELANKVGAAEIISRIVDDLKDEAEQYRKMVMETIEKIMGNLGAADIDHKLEEQLIDGILYAFQEQTTEDSVMLNGFGTVVNALGKRVKPYLPQICGTVLWRLNNKSAKVRQQAADLISRTAVVMKTCQEEKLMGHLGVVLYEYLGEEYPEVLGSILGALKAIVNVIGMHKMTPPIKDLLPRLTPILKNRHEKVQENCIDLVGRIADRGAEYVSAREWMRICFELLELLKAHKKAIRRATVNTFGYIAKAIGPHDVLATLLNNLKVQERQNRVCTTVAIAIVAETCSPFTVLPALMNEYRVPELNVQNGVLKSLSFLFEYIGEMGKDYIYAVTPLLEDALMDRDLVHRQTASAVVQHMSLGVYGFGCEDSLNHLLNYVWPNVFETSPHVIQAVMGALEGLRVAIGPCRMLQYCLQGLFHPARKVRDVYWKIYNSIYIGSQDALIAHYPRIYNDDKNTYIRYELDYIL
